Molecular target: recombinant CypA (UniProt P62937)
Test: cell-based or functional assay

recombinant CypA, sequence (P62937 whole entry): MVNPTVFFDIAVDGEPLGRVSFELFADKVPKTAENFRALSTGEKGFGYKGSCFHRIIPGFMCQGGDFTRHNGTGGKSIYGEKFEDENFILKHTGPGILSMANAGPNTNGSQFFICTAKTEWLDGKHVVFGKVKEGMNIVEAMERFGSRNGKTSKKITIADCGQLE

Row | CypA PPIase IC50 [nM] | Substance
1 | 0.8 | DEBIO-025, 2 (peptide)
2 | 9.7 | Cyclosporine A, 1 (peptide)

Reference: US20120251581A1
